Source: patent USRE47123 (Sanofi, dated 2018)
Positions count from the first letter of the chain named.

B1: murine anti-EphA2 monoclonal antibody 53.2H11 (antibody, V domains shown)
VH: EVQLQQSGPELVKPGASVKISCKASGYSFTAYYMHWVKQSHVKSLEWIGLVNPYNGFSSYNQNFEDKASLTVDKFSSTAYMELHSLTSEDSAVYYCAREFYGYRYFDVWGAGTAVTVSS
VL: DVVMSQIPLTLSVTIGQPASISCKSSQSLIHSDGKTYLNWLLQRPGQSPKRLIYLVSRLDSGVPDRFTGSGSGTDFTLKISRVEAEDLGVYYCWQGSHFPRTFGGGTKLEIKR
notes: Purified murine monoclonal antibody from hybridoma PTA-7662; also called 53.2H11 antibody
B2: murine anti-EphA2 monoclonal antibody 37.3D7 (antibody, V domains shown)
VH: QVQLQQPGSELVRPGASVQLSCKASGYSFTSYWMHWVRQRPGQGLQWIGNIYPGTGNTNYDEKFMNKATLTVDTYSSTTYMQLSSLTSEDSAVYYCARWGLVRYFFAMDYWGQGTSVTVSS
VL: QIVLTQSPAIMSASLGERVTMTCTVSSSVNSSYLHWYQQKPGSSPKLWIYSTSNLPSGVPARFSGSGSGTSYSLTISTIESEDAATYYCHQYHRSPQFTFGSGTKLEIKR
notes: Purified murine monoclonal antibody from hybridoma PTA-7660; also called mu37.3D7; 37.3D7 antibody
B3: murine anti-EphA2 monoclonal antibody EphA2-N1 (antibody, V domains shown)
VH: EVQLQQSGPDLVKPGASVKISCKASGYRFTEYNMHWMKQSHGESLEWIGYIYPYNGDTGYRQKFKNMATLTADISSNTAYMELRSLTSDDSAVYFCARWGYGSGGGFTYWGQGTLVTVSA
VL: DIVLTQSPGSLAVSLGQRATISCRASESVDTYGNSFMHWYQQKAGQPPRLLIYRASNLESGIPARFSGSGSRTDFTLTINPVEADDVATYYCQQSNEDPLTFGAGTKLELKR
notes: Murine monoclonal antibody from hybridoma PTA-8407
B4: murine anti-EphA2 monoclonal antibody 37.1F5 (antibody, V domains shown)
VH: EVQLQQSGPELVKPGASMKISCRASGYSFTGYTMNWVRQSHGKNLEWIGLINPHNGGSSYNLKFKGKATLTVDKSSSTAYMELLSLTSEDSAVYYCVRWGDYGSFAYWGQGTLVTVSA
VL: B3 VL with G9A, Y32F, N34Y, M37I, H38Y, A44P, L100P, A104G, L110I
notes: Purified murine monoclonal antibody from hybridoma PTA-7661; also called mu37.1F5; 37.1F5 antibody
B5: murine anti-EphA2 monoclonal antibody EphA2-N2 (antibody, V domains shown)
VH: EVQLQQSGPELVKPGASVKISCKASGYTFTDYNMHWVKQSHGKSLEWIGFIYPYNGGTGYNQRFKNKATLTVDTSSSTAYMEVRSLTSEDSAVYFCARGYYYGRHFDYWGQGTTLTVSS
VL: QIVLTQSPALMSASPGEKVTMTCSASSSVSYMYWYQQKPRSSPKPWIYITSNLASGVPARFSGSGSGTSYSLTISSMEAEDAATYYCQQWSSNPPTFGGGTKLEIKR
notes: Murine monoclonal antibody from hybridoma PTA-8408

Assays:
murine EphA2 receptor = molecular target: T1, murine EphA2 receptor (murine, UniProt Q03145 26-977); assay: FACS, cells over-expressing murine EphA2
T1 construct: whole, on cells; also called mu-EphA2

human EphA2 receptor [1] = molecular target: T2, human EphA2 receptor (human, UniProt P29317 24-976); assay: FACS titration on HUVEC cells (apparent KD)
T2 construct: whole, on cells; also called hu-EphA2

[2] = molecular target: T3, monkey EphA2 on VERO cells (monkey (Cercopithecus aethiops)); assay: FACS titration on monkey VERO cells, non-linear regression for one-site binding (apparent KD)
T3 construct: whole, on cells

human EphA2 receptor [3] = molecular target: T2, human EphA2 receptor; assay: FACS titration on cells with human EphA2, non-linear regression for one-site binding (apparent KD)
human EphA2 receptor [4] = molecular target: T2, human EphA2 receptor; assay: FACS titration on HUVEC cells, non-linear regression for one-site binding (apparent KD)
human EphA2 receptor [5] = molecular target: T2, human EphA2 receptor; assay: FACS titration on cells with human EphA2, same protocol (apparent KD)

T2 sequence (P29317 24-976): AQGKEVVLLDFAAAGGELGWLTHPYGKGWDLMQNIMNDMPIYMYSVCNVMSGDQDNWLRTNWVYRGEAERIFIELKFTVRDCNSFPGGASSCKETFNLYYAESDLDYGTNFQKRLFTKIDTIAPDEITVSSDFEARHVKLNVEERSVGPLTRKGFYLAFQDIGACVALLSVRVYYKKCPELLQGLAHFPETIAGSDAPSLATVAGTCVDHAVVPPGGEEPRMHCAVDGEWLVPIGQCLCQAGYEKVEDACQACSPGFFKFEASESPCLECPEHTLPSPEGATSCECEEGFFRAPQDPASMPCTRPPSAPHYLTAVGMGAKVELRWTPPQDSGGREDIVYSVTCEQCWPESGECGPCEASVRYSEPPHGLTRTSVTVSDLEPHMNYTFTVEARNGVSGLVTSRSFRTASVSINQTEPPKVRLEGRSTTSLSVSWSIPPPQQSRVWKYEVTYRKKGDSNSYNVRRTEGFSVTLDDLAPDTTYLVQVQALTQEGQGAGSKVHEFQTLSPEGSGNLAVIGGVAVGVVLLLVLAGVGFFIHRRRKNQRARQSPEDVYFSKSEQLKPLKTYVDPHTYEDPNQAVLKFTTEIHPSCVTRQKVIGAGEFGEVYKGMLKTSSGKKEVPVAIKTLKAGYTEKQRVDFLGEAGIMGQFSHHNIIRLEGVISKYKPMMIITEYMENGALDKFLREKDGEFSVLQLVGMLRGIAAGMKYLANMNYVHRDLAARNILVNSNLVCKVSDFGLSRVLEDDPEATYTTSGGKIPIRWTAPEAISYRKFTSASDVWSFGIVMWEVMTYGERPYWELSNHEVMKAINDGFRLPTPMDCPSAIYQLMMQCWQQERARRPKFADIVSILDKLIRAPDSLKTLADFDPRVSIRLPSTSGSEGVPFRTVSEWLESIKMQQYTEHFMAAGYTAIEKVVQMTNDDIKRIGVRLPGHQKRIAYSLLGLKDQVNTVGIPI
T1 sequence (Q03145 26-977): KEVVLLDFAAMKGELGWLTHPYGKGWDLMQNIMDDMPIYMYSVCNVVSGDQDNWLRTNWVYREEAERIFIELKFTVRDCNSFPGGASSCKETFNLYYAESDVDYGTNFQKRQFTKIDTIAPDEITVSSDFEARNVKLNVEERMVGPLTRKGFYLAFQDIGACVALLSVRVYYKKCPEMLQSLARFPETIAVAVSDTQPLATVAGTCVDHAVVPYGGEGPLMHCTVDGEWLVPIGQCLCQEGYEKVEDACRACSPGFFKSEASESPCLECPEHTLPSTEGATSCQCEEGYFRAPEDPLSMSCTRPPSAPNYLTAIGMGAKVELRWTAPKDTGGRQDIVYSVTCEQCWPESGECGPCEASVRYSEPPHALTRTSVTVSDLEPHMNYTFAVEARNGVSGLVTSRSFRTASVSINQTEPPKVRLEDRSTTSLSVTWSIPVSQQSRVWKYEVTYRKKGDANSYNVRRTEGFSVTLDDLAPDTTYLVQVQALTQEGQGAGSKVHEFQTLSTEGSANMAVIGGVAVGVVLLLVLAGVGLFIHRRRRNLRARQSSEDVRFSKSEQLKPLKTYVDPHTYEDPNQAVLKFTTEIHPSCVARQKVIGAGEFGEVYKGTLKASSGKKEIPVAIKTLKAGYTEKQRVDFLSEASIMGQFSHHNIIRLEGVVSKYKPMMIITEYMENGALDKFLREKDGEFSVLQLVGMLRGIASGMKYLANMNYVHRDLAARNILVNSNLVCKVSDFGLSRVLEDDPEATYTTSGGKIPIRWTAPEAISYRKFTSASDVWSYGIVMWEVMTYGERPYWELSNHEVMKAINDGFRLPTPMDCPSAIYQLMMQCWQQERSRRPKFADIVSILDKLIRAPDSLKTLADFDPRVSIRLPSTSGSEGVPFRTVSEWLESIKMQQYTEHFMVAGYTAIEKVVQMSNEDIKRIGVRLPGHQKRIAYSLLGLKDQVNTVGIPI

Binder | binding result (murine EphA2 receptor) | Kd (human EphA2 receptor [1]) [nM] | Kd [2] [nM] | Kd (human EphA2 receptor [3]) [nM] | Kd (human EphA2 receptor [4]) [nM] | Kd (human EphA2 receptor [5]) [nM]
B1 | binds | 0.06 | 0.07 | 0.14 | – | –
B2 | binds | – | 0.15 | – | 0.3 | –
B3 | – | – | – | – | – | 0.18
B4 | – | 0.01 | 0.05 | 0.07 | – | –
B5 | – | – | – | – | – | 0.05
